The record followed here is patent publication US20230183713A1, “SITE-SPECIFIC RECOMBINASES FOR EFFICIENT AND SPECIFIC GENOME EDITING” (TECHNISCHE UNIVERSITÄt DRESDEN, published 2023).

Residue numbers refer to the chain shown, from its start. In names and notes the source's numbering stands.

The target in data set [1] is T1, Cre recombinase monomer with Y324R mutation.
T1 chain: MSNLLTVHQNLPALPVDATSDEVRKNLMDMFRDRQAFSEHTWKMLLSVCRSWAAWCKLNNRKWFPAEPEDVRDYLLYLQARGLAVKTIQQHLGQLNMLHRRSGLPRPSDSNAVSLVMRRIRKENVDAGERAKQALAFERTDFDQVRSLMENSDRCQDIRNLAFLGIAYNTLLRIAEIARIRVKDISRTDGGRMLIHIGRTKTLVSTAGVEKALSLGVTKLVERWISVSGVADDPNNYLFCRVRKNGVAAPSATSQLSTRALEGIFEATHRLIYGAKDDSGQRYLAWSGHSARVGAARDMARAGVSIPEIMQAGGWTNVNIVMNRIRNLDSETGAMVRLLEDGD

The target of data set [2] is T2, Cre recombinase monomer with Y324I mutation.
T2 chain: T1 chain with R324I

Data set [3] has as its target T3, Cre recombinase monomer with W315Q mutation.
T3 chain: T1 chain with W315Q, R324Y

Data set [4] has as its target T4, Cre recombinase monomer with Y324T mutation.
T4 chain: T1 chain with R324T

Data set [5] deals with T5, Cre recombinase monomer with Y324C mutation.
T5 chain: T1 chain with R324C

Data set [6] has as its target T6, Cre recombinase monomer with W315C mutation.
T6 chain: T1 chain with W315C, R324Y

For data set [7], the target named is T7, Cre recombinase monomer with Y324F mutation.
T7 chain: T1 chain with R324F

Data set [8] has as its target T8, Cre recombinase monomer with W315V mutation.
T8 chain: T1 chain with W315V, R324Y

B1: Cre recombinase monomer with Q311R mutation (protein)
chain: T1 chain with Q311R, R324Y
With B1, the “Median dimer activity (recombination on loxP)” value in data set [1] came to 61%; in data set [2], 96%; in data set [3] it was 49%; in data set [4], 85%; in data set [5], 93%; in data set [6] it was 84%. For the same protein, the “Median dimer activity (recombination on loxP)” value in data set [7] is listed as 95%; in data set [8], 91%.
